Measured values taken from US20230181714A1.

B1: VEE-81 (antibody, V domains shown)
VH: QVQLVQSGAEVKKPGASVKVSCKASGYTFTTYYIHWVRQAPGRGLEWMGIINSSGYNTYYAQKFQGRVTMTRDTSTSTVDMELSSLRSEDTAVYYCATSITTRAFDLWGQGTLVTVSS
VL: EIVLTQSPGTLSLSPGERVTLSCRASQSVSSIYLAWYQQRPGQAPRLLIYGASSRATGIPDRFSGSGSGTDFTLTIRRLEPEDFAVYYCQQYGSSPYTFGQGTKLEIK
B2: VEE-52B (antibody, V domains shown)
VH: QVHLLQSGAEVKKPGASVKVSCKSSGHTFASHGISWVRQAPGQGLEWMGWISVYNGNTNYAQKFQGRVIMTTDTPTSTAYMELRSLRSDDTAVYYCAKDIPSASYTMDVWGEGTTVTV
VL: QSALTQPRSVSGSPGQSVTISCTGTSSDIGRYDYVSWYHQHPGKAPKLMIYDVTKRPSGVPDRFSGSKSGNTASLTISGLHADDEADYYCCSYAGSFYVFGTGTKVTVL

Experiments:
[1] = target: VEEV virus-like particles (VLPs) (Venezuelan equine encephalitis virus); test: ELISA, binding reactivity (FIG. 1)
VEEV virus-like particles (VLPs) (Venezuelan equine encephalitis virus), sequence (P05674 335-757, chain 1 of 2): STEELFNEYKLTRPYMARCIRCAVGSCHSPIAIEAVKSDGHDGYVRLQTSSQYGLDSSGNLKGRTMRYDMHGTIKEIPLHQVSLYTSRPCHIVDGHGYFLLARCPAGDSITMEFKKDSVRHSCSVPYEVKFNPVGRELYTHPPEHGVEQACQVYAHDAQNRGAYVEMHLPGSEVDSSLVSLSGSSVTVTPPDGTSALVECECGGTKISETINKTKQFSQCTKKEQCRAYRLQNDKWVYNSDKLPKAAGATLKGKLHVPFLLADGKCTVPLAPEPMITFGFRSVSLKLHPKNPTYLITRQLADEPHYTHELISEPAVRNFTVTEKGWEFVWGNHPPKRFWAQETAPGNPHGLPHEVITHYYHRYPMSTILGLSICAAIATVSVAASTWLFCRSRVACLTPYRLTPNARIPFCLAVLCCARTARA
VEEV virus-like particles (VLPs) (Venezuelan equine encephalitis virus), sequence (P05674 813-1254, chain 2 of 2): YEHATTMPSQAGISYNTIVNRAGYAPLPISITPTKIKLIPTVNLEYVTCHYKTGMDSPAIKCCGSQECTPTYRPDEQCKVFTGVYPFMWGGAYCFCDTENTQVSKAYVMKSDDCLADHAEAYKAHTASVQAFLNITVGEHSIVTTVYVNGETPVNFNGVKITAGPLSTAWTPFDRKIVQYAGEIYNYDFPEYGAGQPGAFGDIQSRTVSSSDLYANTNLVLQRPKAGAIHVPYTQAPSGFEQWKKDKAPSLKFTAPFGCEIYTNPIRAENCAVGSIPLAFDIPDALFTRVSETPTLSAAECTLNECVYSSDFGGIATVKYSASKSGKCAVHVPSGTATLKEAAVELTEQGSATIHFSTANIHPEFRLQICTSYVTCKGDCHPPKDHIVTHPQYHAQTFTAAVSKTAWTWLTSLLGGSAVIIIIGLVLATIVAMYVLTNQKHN

[2] = target: recombinant EEEV E1 glycoprotein (Eastern equine encephalitis virus); test: ELISA, binding reactivity (FIG. 1)

Binder	EC50 [1] [µg/mL]	EC50 [2] [µg/mL]
B1	< 0.02	< 0.02
B2	< 0.02	< 0.02
